Here are results for one substance from paper PMC10404741.

The target in this test is protein-base BG505 trimer (BG505 DS-SOSIP-2G-3Mut-RnS7Mut) (HIV-1 (BG505)) (UniProt Q2N0S6). The experiment in a line: SPR; 2G12 antibody immobilised on a CM5 chip (about 2,000 RU), HIV trimer loaded onto it; sCD4 injected at five concentrations (30-500 nM), single cycle, 50 uL/min; 10 mM HEPES pH 7.4, 150 mM NaCl, 3 mM EDTA, 0.05% P-20; Biacore T-200.

Broadly, the Kd is the concentration at which binding is half-saturated. As to “soluble construct of CD4 containing the first two domains (sCD4) (domain or fragment)”, the Kd is 1.2 µM.
